Measurements from patent US20260232828A1, “LIGAND-CYTOTOXICITY DRUG CONJUGATES AND PHARMACEUTICAL USES THEREOF” (HANSOH BIO LLC, priority 2023, published 2026).
Numbering of substitutions follows the chain as printed.

How the values were obtained:
[1] = target: human CDH17 as originally expressed in cells (cell surface CDH17 on AsPC1, GP2d and other cancer cell lines) (human) (UniProt Q12864); experiment: flow cytometry, labelled antibody on AsPC1 cells
[2] = target: human CDH17 His Tag (Sino biological, catalog number 11360-H08H) (human) (UniProt Q12864); experiment: Octet BLI, antibody on AHC biosensor, antigen in solution
[3] = target: human CDH17 as originally expressed in cells (cell surface CDH17 on AsPC1, GP2d and other cancer cell lines) (human) (UniProt Q12864); experiment: flow cytometry competition on AsPC1 cells: unlabelled HBMAB81 0.03-1800 nM against 0.97 nM HBMAB81-AF647, MFI
[4] = target: T1, human CDH17 as originally expressed in cells (cell surface CDH17 on AsPC1, GP2d and other cancer cell lines) (human, UniProt Q12864 23-832); experiment: flow cytometry titration on CDH17 positive AsPC1 cells
T1 construct: whole, on cells; Endogenous CDH17 on human cancer cell lines; AsPC1 and GP2d are named CDH17 positive; also called CDH17 positive AsPC1 cells; GP2d cells
Procedure: (§1) To determine the binding of recombinant antibody to cell surface CDH17 receptors, cells were first harvested and resuspended in cell staining buffer (BioLegend, Cat #420201) at 1.3-1.5×10⁶ cells/mL. Then, the cells were treated with human Fc receptor blocking reagent (BioLegend, Cat #422302) on the ice for 10 min. The resulting cell suspension was aliquoted into 50 μL aliquots. […] The cells were incubated on the ice for 1 hour and then washed with cell staining buffer twice. 50 μL of secondary antibody (PE conjugated goat anti-human Fc, eBioscience™, 1:250 dilution) was added to each sample to resuspend the cells. The cells were incubated on the ice for another 20 min. Cells were subsequently washed twice with cell staining buffer and resuspended in 4% PFA to fix the cells. The samples were analyzed using iQue3 to measure the median fluorescence intensity using corresponding channels.

[5] = target: T2, human CDH16-His tag (Sino biological, catalog number 10915-H08H) (human, UniProt O75309 19-786); experiment: Octet BLI, antibody on AHC biosensor, antigen 200 nM to 3.1 nM
T2 construct: Bought recombinant protein; also called hCDH16; not shown: His tag
T2 sequence (looked up): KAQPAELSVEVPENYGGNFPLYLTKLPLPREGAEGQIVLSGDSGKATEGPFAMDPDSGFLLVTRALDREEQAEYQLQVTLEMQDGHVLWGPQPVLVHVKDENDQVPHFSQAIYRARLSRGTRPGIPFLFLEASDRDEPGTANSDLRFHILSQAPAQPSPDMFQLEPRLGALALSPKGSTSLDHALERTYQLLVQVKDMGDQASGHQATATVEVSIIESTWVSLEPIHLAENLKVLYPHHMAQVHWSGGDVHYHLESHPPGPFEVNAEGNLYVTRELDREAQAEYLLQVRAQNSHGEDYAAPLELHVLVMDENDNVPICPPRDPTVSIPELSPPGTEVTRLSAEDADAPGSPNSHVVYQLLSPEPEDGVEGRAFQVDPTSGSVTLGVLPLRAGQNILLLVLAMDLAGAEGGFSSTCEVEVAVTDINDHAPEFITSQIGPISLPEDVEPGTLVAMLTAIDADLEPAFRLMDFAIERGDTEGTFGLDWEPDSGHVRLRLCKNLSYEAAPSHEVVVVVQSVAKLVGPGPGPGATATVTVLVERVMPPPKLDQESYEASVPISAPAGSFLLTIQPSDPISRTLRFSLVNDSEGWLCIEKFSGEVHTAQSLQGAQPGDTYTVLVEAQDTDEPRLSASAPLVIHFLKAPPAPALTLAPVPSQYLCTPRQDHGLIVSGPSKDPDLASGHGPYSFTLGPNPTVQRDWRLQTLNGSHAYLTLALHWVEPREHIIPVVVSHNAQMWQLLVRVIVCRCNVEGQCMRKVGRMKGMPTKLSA
Procedure: (§2) The affinity between CDH17 antibodies and CDH17 antigens and homologues was determined by Octet (Octet Red 384) instrument. Anti-hIgG Fc Capture (AHC) Biosensors were selected, and the sensors were balanced with buffer solution for 10 min. Subsequently, sensors were dipped into the wells containing 1 μg/ml of CDH17 lead antibodies to load onto the probes. The excess unbound antibodies were washed off. The antigen binding was performed in the wells containing serially diluted human CDH17-His tag (Sino biological, catalog number 11360-H08H), cynomolgus CDH17-His tag (Acro Biosystems, catalog number CA7-C52H4), homologs human CDH6-His tag (Acro Biosystems, catalog number CA6-H5229) and human CDH16-His tag (Sino biological, catalog number 10915-H08H), with concentration ranging from 200 nM to 3.1 nM, for 5 min. Then probes were dipped into wells containing renewed buffer to initiate the dissociation for another 15 min.

[6] = target: T3, human CDH6-His tag (Acro Biosystems, catalog number CA6-H5229) (human, UniProt P55285 54-615); experiment: as above
T3 construct: Bought recombinant protein; also called hCDH6; not shown: His tag
T3 sequence (looked up): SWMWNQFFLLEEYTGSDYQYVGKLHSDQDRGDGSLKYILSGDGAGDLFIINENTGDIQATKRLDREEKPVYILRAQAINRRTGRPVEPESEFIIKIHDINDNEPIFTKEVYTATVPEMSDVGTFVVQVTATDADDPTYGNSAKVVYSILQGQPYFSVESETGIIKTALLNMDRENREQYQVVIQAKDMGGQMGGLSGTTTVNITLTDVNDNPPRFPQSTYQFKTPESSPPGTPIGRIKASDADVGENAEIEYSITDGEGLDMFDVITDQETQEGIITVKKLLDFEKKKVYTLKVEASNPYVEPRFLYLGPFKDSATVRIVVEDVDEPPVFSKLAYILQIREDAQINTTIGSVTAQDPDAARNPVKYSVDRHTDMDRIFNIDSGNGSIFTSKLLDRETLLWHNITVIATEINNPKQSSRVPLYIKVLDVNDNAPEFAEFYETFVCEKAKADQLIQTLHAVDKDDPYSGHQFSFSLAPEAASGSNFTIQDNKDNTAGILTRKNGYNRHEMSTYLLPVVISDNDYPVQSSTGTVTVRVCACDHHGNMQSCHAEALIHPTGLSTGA
Procedure: as §2

[7] = target: T1, human CDH17 as originally expressed in …; experiment: cell-based or functional assay
[8] = target: cynomolgus CDH17-His tag (Acro Biosystems, catalog number CA7-C52H4) (cynomolgus); experiment: Octet BLI, antibody on AHC biosensor, antigen in solution
[9] = target: T4, human CDH17 His Tag (Sino biological, catalog number 11360-H08H) (human, UniProt Q12864 23-787); experiment: as above
T4 construct: Bought recombinant protein; also called hCDH17; human CDH17 protein; not shown: His tag
Procedure: as §2

[10] = target: T1, human CDH17 as originally expressed in …; experiment: flow cytometry titration of recombinant human IgG1 on CDH17-positive AsPC1 cells, 0.001-200 nM, PE anti-human Fc, MFI
Procedure: as §1

[11] = target: T4, human CDH17 His Tag (Sino biological, …); experiment: ELISA, plate coated with 1 µg/ml human CDH17 His Tag, hybridoma supernatant
Procedure: (§3) ELISA was performed using the DuoSet ELISA Ancillary Kit (R&D System, DY008). ELISA plates were coated with 1 μg/ml of human CDH17 His Tag (Sino biological, catalog number 11360-H08H), or BSA overnight. Excess unbound proteins were washed off by washing the plates three times with the wash buffer before blocking for 1 hour at room temperature. 100 μl CDH17 hybridoma supernatant was added in each well and incubated for 1 hour at room temperature. Excess unbound antibodies were washed off and 100 μl of 1:30000 diluted secondary antibody Goat anti-mouse IgG Fc-HRP (ab5870) was added to each well for another 1 hour. Plates were washed before the addition 50 μL of […] (color A and color B) according to manufacturer's protocol. The reactions were stopped using 25 μL of stop solution. Optical density at 450 nm of samples was measured by a microplate reader (PerkinElmer).

BSA [12] = target: T5, BSA (UniProt P02769 25-607); experiment: ELISA, plate coated with 1 µg/ml BSA, hybridoma supernatant
T5 construct: Control coating protein of the ELISA
T5 sequence (P02769 25-607 limits assumed): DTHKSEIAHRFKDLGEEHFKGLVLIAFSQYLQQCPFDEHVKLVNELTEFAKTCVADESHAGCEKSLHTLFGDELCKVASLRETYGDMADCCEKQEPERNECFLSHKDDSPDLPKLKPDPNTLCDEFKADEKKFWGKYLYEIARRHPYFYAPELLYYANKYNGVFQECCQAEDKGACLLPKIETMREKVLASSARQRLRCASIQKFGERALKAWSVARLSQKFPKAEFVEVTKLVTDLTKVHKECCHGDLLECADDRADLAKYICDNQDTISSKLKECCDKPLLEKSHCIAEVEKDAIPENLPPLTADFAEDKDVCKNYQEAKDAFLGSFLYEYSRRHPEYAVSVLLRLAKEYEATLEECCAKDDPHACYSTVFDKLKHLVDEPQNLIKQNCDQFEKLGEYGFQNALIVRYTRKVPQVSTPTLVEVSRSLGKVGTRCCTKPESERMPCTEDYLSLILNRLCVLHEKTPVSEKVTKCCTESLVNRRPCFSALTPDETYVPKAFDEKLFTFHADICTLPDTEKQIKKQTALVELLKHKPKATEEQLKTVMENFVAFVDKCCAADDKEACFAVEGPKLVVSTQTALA
Procedure: as §3

BSA [13] = target: T5, BSA; experiment: ELISA, plate coated with BSA, hybridoma supernatant
Procedure: as §3

Molecule “HBMAB81-AF647 (HBMAB81 mAb labeled with Alexa Flour 647) (antibody)” has an EC80 [1] of 0.97 nM.

“HBMAB-81, reformatted mAb with the CDH17 binding arm from bispecific antibody BI 905771 and human IgG1 backbone” showed a Kd [2] of 4 nM, a koff [2] of 0.00136 s⁻¹ and a kon [2] of 340000 M⁻¹ s⁻¹. For the same molecule, the IC50 (read off the curve) [3] was 0.3 nM.

B1: 14B12 anti-CDH17 recombinant antibody (human IgG1) (antibody, V domains shown)
VH: QVQLQESGPGLVKPSETLSLTCTVSGGSINTYYRSWIRQPPGKGLEWIGYIYYSGNTNYNPSLKSRVTISADTSKNQFSLNLISVTAADTAMYYCARAQYGEEAFDIWGQGTLVTVSS
VL: DIQMTQSPSSLSASVGDRVTITCRASQSITTYLNWYQQKPGKAPQLLIFAASRLQTGVPSRFSGSGSGTDFTLTISSLLPGDFATYYCQQSYNTPPTFGGGTKVEIKR
For B1, the Kd [4] was 0.07 nM, the binding result [5] was “no binding (tested: 200 nM)” and the binding result [6] was “no binding (tested: 200 nM)”. For the same molecule, the “IC50 of indirect killing assay to evaluate the internalization in AsPC1 cells” value (shortened to “IC50 of indirect killing assay”) [7] was 0.09 nM, the Kd [8] was 2.5 nM and the koff [8] was 0.00016 s⁻¹. The kon [8] was 620000 M⁻¹ s⁻¹, the Kd [9] was 2.2 nM and the koff [9] was 0.000507 s⁻¹. It also gave a kon [9] of 230000 M⁻¹ s⁻¹.

B2: 10E11 anti-CDH17 recombinant antibody (human IgG1) (antibody, V domains shown)
VH: EVQLVQSGTEVKKPGESLKISCKDSGYRFSSYWIGWVRQMPGKGLEWMGIIYPGDSDTRYSPSFQGQVTISADKSISTAYLQWRSLKASDTAMYYCARRGWVNYFDYWGQGTLVTVSS
VL: DIQMTQSPSSVSASVGDRVTITCRASQGISNWLGWYQQKPGKAPKLLIYAASSLQSGVPSRFSGSGSGTDFTLTISSLQPEDFATYYCQQANSFPLTFGGGTKVEIKR
For B2, the Kd [4] was 0.1 nM, the binding result [5] was “no binding (tested: 200 nM)” and the binding result [6] was “no binding (tested: 200 nM)”. For the same molecule, the “IC50 of indirect killing assay” value [7] was 0.08 nM, the Kd [8] was 15 nM and the koff [8] was 0.0012 s⁻¹. For the same molecule, the kon [8] was 80000 M⁻¹ s⁻¹, the Kd [9] was 14.2 nM and the koff [9] was 0.00138 s⁻¹. The kon [9] was 97500 M⁻¹ s⁻¹.

B3: 15A4 anti-CDH17 recombinant antibody (human IgG1) (antibody, V domains shown)
VH: QVQLVESGGGVVQPGRSLRLSCAASGFNFSSYGMHWVRQAPGKGLEWVAFVWYDGSNQNYADSVKGRFTISRDNSNNTLYLQMNSLRAEDTAVYYCARDRYSSGWDVFDYWGQGTLVTVSS
VL: B2 VL with N31S, G34A, Y49F, D70G, N92K, L96P, G100Q
With B3 the Kd [4] was 2.32 nM, the “IC50 of indirect killing assay” value [7] was 1.99 nM and the “EC50 (read off the curve)” value [10] was roughly 3 nM.

B4: 4F9 anti-CDH17 recombinant antibody (human IgG1) (antibody, V domains shown)
VH: QVQLQESGPGLVKPSGTLSLTCAVSGGSISSSNWWSWVRQPPGKGLEWIGEIYHSGSTSYNPSLKSRVTISVDKSKNQFSLKLSSVTAADTAVYYCARNDWGFPLDCWGQGTLVTVSS
VL: DIQMTQSPSSLSASVGDRVTITCRASQSISSYLNWYQQKPGKAPKLLIYAASSLQSGVPSRFSGSGSGTHFTLTISSLQPEDFATYYCQQSHNIPITFGQGTRLEIKR
For B4, the Kd [4] was 1.69 nM, the “IC50 of indirect killing assay” value [7] was 0.29 nM and the “EC50 (read off the curve)” value [10] was roughly 2 nM.

B5: 4F9 (hybridoma clone supernatant) (antibody, V domains shown)
VH: B4 VH
VL: DIQMTQSPSSLSASVGDRVTITCRASQSISSYLNWYQQKPGKAPKLLIYAASSLQSGVPSRFSGSGSGTHFTLTISSLQPEDFATYYCQQSHNIPITFGQGTRLEIK
notes: Hybridoma supernatant
B5 was tested, and the OD450 [11] was 1.52 OD450, the binding result (BSA [12]) was “no binding” and the OD450 (BSA [13]) was 0.051 OD450.
